B1: aptamer 1.1 (ssRNA)
RNA: AGCUCGAGCUCGAAUUCGGGAGAUUCCGUUUUCAGUCCGGGAAAAACUGAAGGGCCCGGAUCCGUC
B2: aptamer 70.15 (ssRNA)
RNA: AGCUCGAGCUCGAAUUCCCUACGAACCCAGGAGAUAAGGGGGAAAACUCUGGAAAACGGGCCCGGAUCCGUC
B3: aptamer 70.28t34 (ssRNA)
RNA: AGCUCGAGCUCGAAUUCGGGAACCGGACGGGUGAGAACCGAGACAAACACCGGGCCCGGAUCCGUC
B4: aptamer 70.8,13 (ssRNA)
RNA: AGCUCGAGCUCGAAUUCAAAGAGAUCUGGCAGUGUCACAACCAGGAAAAAGACACGACGAACGGGCCCGGAUCCGUC
B5: aptamer 80.55,65 (ssRNA)
RNA: AGCUCGAGCUCGAAUUCAUUUAAUUCCAUAAUGGCUCACCACAAGGGGAACGUUGAUGAAAUAGGGCCCGGAUCCGUC
B6: aptamer 70.28 (ssRNA)
RNA: AGCUCGAGCUCGAAUUCACAAGAACCGGACCGGGUGAGAACCGAGACAAACACCCACCAAGAGGGCCCGGAUCCGUC

Tests used:
[1] = target: T1, HIV-1 reverse transcriptase (RT) (HIV-1, UniProt P04585;P04585 P04585:588-1147,P04585:588-1027); assay: inhibition; RT activity, 80 mM KCl, 6 mM MgCl2, pH 8.0, 37 C
Protocol: (§1) In vitro RT inhibition. To determine the IC₅₀ values, self-cleaved RNA aptamers were gel purified and eluted in 500 mM NH₄OAc/1 mM EDTA/0.2% SDS. RNA was then treated with phenol/chloroform and ethanol precipitated. RT reactions (50 μl) contained 80 mM KCl, 50 mM Tris-Cl (pH 8.0), 6 mM MgCl₂, 1 mM dithiothreitol (DTT), 0.1 mg/ml BSA, 10 μM […], 25 μM each of the remaining three dNTPs, and a range of concentrations of RNA aptamers (1 nM to 1000 nM). Reactions were incubated at 37° C. for 15 min. Reactions initiated by the addition of 25 ng of purified HIV-1 RT and at the end of the reaction, aliquots were spotted onto DE81 filter paper and washed with 2×SSC (30 mM Sodium Citrate, 300 mM NaCl pH 7.0). Dried filters were then counted and individual IC₅₀s were determined by fitting results to a dose-response curve using nonlinear regression (GraphPad Software Inc., San Diego, Calif.).
(§2) Next, the ability of each of the 10 selected RNA aptamers to inhibit recombinant purified HIV-1 RT was evaluated in vitro and the degree of inhibition (IC₅₀) by each aptamer was determined. In vitro transcription of the primary transcripts with T3 RNA polymerase was followed by gel purification of the processed aptamers. The IC₅₀s calculated ranged from 89 nM to >1000 nM (Table 1). Six RNA aptamers were selected for further studies, to test their effectiveness in inhibiting HIV-1 replication.

[2] = target: T1, HIV-1 reverse transcriptase (RT); assay: EMSA; 50 mM KCl, 25 mM NaCl, 5% glycerol, BSA, 25 C
Protocol: (§3) Radiolabeled, processed RNA aptamers were gel purified and eluted in 500 mM NH₄OAc/1 mM EDTA/0.2% SDS. RNA was then treated with phenouchloroform and ethanol precipitated. Electrophoretic mobility shift assays were performed by incubating 10 fmol purified RNA aptamer with increasing amounts of purified HIV-1 RT at 25° C. in 10 μl of buffer containing 50 mM KCl, 25 mM NaCl, 5% glycerol, 300 μg/ml BSA. The reaction products were electrophoresed on native polyacrylamide gels. Dried gels were exposed to a phosphorimager screen and Kd calculated by using the ImageQuant software. To determine the binding strengths, the percentage of band shift observed with increasing concentrations of RT (1 nM to 500 nM), with respect to the no protein control lane, was first determined. The Kd values were determined by fitting data from three independent experiments to a dose response curve using nonlinear regression (Cann 1996) (GraphPad Software Inc.).
Therefore, the ability of each of the 10 selected RNA aptamers to bind recombinant purified HIV-1 RT was evaluated in vitro via an electrophoretic mobility shift assay (EMSA) and the dissociation constants determined for each individual aptamer in its processed form. In vitro transcription of the primary transcripts, with T3 RNA polymerase was followed by gel purification of the processed aptamers. The aptamer RNAs were incubated with increasing concentrations of purified recombinant HIV-1 RT, the reactions were resolved on a non-denaturing polyacrylamide gel (FIG. 3) and Kd values calculated based on the degree of band shift caused by the formation of RNA-protein complexes (see Methods section).

[3] = target: T1, HIV-1 reverse transcriptase (RT); assay: EMSA; 50 mM KCl, 25 mM NaCl, 5% glycerol, BSA, 25 C; processed RNA with flanks; settings: pseudoknot-like potential stated for some aptamers
Protocol: as §3
Therefore, the ability of each of the 10 selected RNA aptamers to bind recombinant purified HIV-1 RT was evaluated in vitro via an electrophoretic mobility shift assay (EMSA) and the dissociation constants determined for each individual aptamer in its processed form. In vitro transcription of the primary transcripts, with T3 RNA polymerase was followed by gel purification of the processed aptamers. […]

[4] = target: T1, HIV-1 reverse transcriptase (RT); assay: inhibition; RT activity, 80 mM KCl, 50 mM Tris pH 8.0, 6 mM MgCl2, 37 C; settings: pseudoknot-like potential stated for some aptamers
Protocol: as §1, §2

Row | Binder | IC50 [1] | Kd [2] | also measured
1 | B1 | 607 nM | 270 nM | 
2 | B2 | 159 nM | 63 nM | 
3 | B3 | 327 nM | 219 nM | 
4 | B4 |  |  | Kd [3]: 27 nM; IC50 [4]: 89 nM
5 | B5 | 143 nM | 129 nM | 
6 | B6 |  |  | IC50 ([1]; pseudoknot): 254 nM; Kd ([2]; pseudoknot): 201 nM
